Assay results published in the supplement of paper PMC9170038.

Test system: MS2 coat protein
Assay: apparent KD of MS2 coat protein; designed switch direction (-1 OFF switch, 1 ON switch): -1; higher = weaker reporter binding
Procedure, shortened: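 SNAP-549-labelled MS2 coat protein was titrated, doubling from 0.7 or 1.5 nM to 3 µM, over designed RNA switches transcribed on Illumina chips by stalled E. coli RNA polymerase. Runs were done without input, with 200 uM small-molecule ligand, or with an oligonucleotide input. Apparent KD is the per-design median over clusters of curve-fitted normalised fluorescence.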

[1] = Eterna round: R95, input ligand: microRNA oligo, concentration not stated
[2] = Eterna round: R95, input ligand: FMN 200 uM
[3] = Eterna round: R95, input ligand: none
[4] = input ligand: microRNA oligo, concentration not stated

Sequence	apparent KD of MS2 coat protein [1] [nM]	apparent KD of MS2 coat protein [2] [nM]	apparent KD of MS2 coat protein [3] [nM]	apparent KD of MS2 coat protein (input ligand: FMN 200 uM) [nM]	apparent KD of MS2 coat protein [4] [nM]	apparent KD of MS2 coat protein (input ligand: none) [nM]
AAUUUACAUGAGGAUCACCCAUGUCAGGAUAUGGUUUUAUUUUUUUCUUUUCUUGAUUCCAGAAGGGACAGUUA (puzzle: Exclusion 1)	81.6	–	–	–	–	–
CAGAAACAUGAGGAUCACCCAUGUGAGGAUAUGCGUACGUUGUCCGUAGGCGACGUGCGCAGAAGGCGCAAAGG [Mat - Mod of JL D85] (puzzle: Exclusion 1)	59.3	115	116	–	–	–
UACAUGAGGAUCACCCAUGUUUUGUCGUGUAUGGUAUUUAUCUAGGAUAUCAUUCUAUUUAUUUAUGAGAAGGAGAAUAUUAAU [JMF's solution 98] (Eterna round: R96, puzzle: Exclusion NG 3)	–	–	–	33.4	23.5	29.7
CUCUUGUCAGGAUAUCAACGCCGCCCACACAGGCGGCGAAAUGAGAAGGGACAUGAGGAUCACCCAUGUUAAAA [Tiaonbi] (puzzle: Exclusion 4)	86.1	24.3	168	–	–	–
GUUUUCAGACGGAGAUCCUACAUGAGGAUCACCCAUGUCUCUCUUGCUAAUUGCUCGUCUUUUCCUCCUCUGUUCUC [Elimod 35 - Jieux - Sensor, turn-off variant 1] (Eterna round: R97, puzzle: Sensor, turn-off variant 1)	–	–	–	457	–	567
CCUCGACAUGAGGAUCACCCAUGUCAGGAUAUUGUGUUUUGGGUUUUUUACCUUUUGGCAAGAAGGGAUGUGUG [LRO-Excl1-19] (puzzle: Exclusion 1)	14.4	–	–	–	–	–
UGUCAGAUGGUAGGAUAUUCAUAUCGAGUGACCCUUUCAUAACAUGAGGAUCACCCAUGUCGGUGGGAGAAGGGCCGUAUGGUG [salish99_ExNG02_R04_030] (Eterna round: R96, puzzle: Exclusion NG 2)	–	–	–	–	22.7	–
AAACACUGAGGAUAUGCGUAACAACAAAGCCUCACGUGCCAACAUGAGGAUCACCCAUGUAGAAGGCAGUCCAA [Mod R3 Insanara 17 - Jieux - Exclusion 2] (Eterna round: R97, puzzle: Exclusion 2)	–	–	–	25.2	–	25.1
CUGCUGGAGCUUUGCUUUGGUCGUACAUGAGGAUCACCCAUGUAGGAUAUGGUAGGCUUUGCUUACUAGAAGGAUAGAGUGGUC [salish99_ExNG3_r04_608] (Eterna round: R96, puzzle: Exclusion NG 3)	–	–	–	160	76.4	86.4
AGAUGGCGAGGAUAUACAUGAGGAUCACCCAUGUGAGAUAAAUAAGUGAGGAAGAAAAGUAGAAGGCGCUGUCA [Mat - Exclusion 3 - Mod of Salish D14] (puzzle: Exclusion 3)	74.3	–	–	–	–	–
UUUUUUUUGCUGGUUUUUUACAUGAGGAUCACCCAUGUCCUCUGCUUGUCUUGUGUUGUGCUGGUUUCUGGUGCGGC [Revision to "-18.4 -40.2 kcal, A 8%"by Sellena] (Eterna round: R97, puzzle: Sensor, turn-off variant 1)	–	–	–	428	–	1210
CGUCUGUAAGGAUAUGGUAGCAUUUACAUGAGGAUCACCCAUGUUACAUGGGACUAGUGACUAGAAGGUACGAACG [EX5 #54] (Eterna round: R97, puzzle: Exclusion 5)	–	–	–	106	–	142
CUUUGAUGAGGAUAUCGAGGUUAGUACAUGAGGAUCACCCAUGUUAUCCAGGUGUCGGUUCGAGAAGGUAUUGGAC [LRO-Ex5-17] (puzzle: Exclusion 5)	15.6	–	–	–	–	–
UCUCUUGGGCAAGGAUAUCCUGCGCGGUUCCGGUUCGUGUCUGUCACAUGAGGAUCACCCAUGUGGGAGAAGGUGCCUGCGGUG [Design 75] (Eterna round: R96, puzzle: Exclusion NG 2)	–	–	–	32.5	15.8	17.3
GUAGAGUGAGGAUAUACGAGAUCGAUAGAUCAACGAUCCAAACAUGAGGAUCACCCAUGUAGAAGGCACUCUAC [Mat - Exclusion 2 - Eli Mod - D8] (Eterna round: R97, puzzle: Exclusion 2)	–	–	–	224	–	23.1
AAGAAACAUGAGGAUCACCCAUGUGAGGAUAUGAGCAAGAAAAGAAAAGAAAGAAGAUUCAGAAGGCACAAAGG [salish99-ex1_r3_059] (puzzle: Exclusion 1)	39.4	61.6	59.3	–	–	–
GUAAUUAAUGUAGGAUAUGCAAGGCGAACCUAAGCAGAAGGACAUGAGGAUCACCCAUGUAUUGCGGUCUGCGUUCAGAUCGCU [salish99_ExNG1_r4_009] (Eterna round: R96, puzzle: Exclusion NG 1)	–	–	–	–	15.4	–

Sequence	apparent KD of MS2 coat protein [1] [nM]	apparent KD of MS2 coat protein [2] [nM]	apparent KD of MS2 coat protein [3] [nM]	apparent KD of MS2 coat protein (input ligand: FMN 200 uM) [nM]	apparent KD of MS2 coat protein [4] [nM]	apparent KD of MS2 coat protein (input ligand: none) [nM]
UUGAAGAUAGGAUAUACGAGGAGAGGAGAGAGAAGGUGAGGACAUGAGGAUCACCCAUGUAGAAGGAUCAGGAG [JR_Exclu2_Sub066] (puzzle: Exclusion 2)	86.9	66.1	84.9	–	–	–
AGUCAGGCGGUAGGAUAUCCAUAUCGAGUGACCCUUUCAUAACAUGAGGAUCACCCAUGUCGGUGGGAGAAGGGCCGUACGGCA [Mat - Exclusion NG 2 - Mod of JL - D68] (Eterna round: R96, puzzle: Exclusion NG 2)	–	–	–	116	52.3	89.3
AAUUAAUAUCAGGAUAUGACUUUCGAUAUUUAGUCAGAAGGGAUGACAUGAGGAUCACCCAUGUGAUCAAUUAA [JR_Ex6_Sub027] (Eterna round: R97, puzzle: Exclusion 6)	–	–	–	101	–	37.7
CGAGCUCAUGUGAGGAUAUACCUAUGGAUACAUAGGUAGAAGGCACAUGAGGAUCACCCAUGUCCUUGAGCUCG [jl-bmx4-4.59 Eli mod] (Eterna round: R97, puzzle: Brourd's mod of Exclusion 4)	–	–	–	309	–	50.4
ACGUAGGUAGUUAGGAUAUUUAGUAUAUUUACAGUGAAGAAGGAACAUGAGGAUCACCCAUGUAGUGGUGUCCA [Eternabot (L1) Solution 68] (Eterna round: R97, puzzle: Brourd's mod of Exclusion 4)	–	–	–	1200	–	3180
CUGUGCACGCUGCGGUCCUACAUGAGGAUCACCCAUGUGGUCUGGUGGCGUGGGUCACCGGACUUGGCUCGUCUUGU [salish99_S_TOV1_R5_064] (Eterna round: R97, puzzle: Sensor, turn-off variant 1)	–	–	–	35.7	–	42.3
AUUGUUUAUGUAGGAUAUGCCUGGCGUGCCUUUGCAGAAGGACAUGAGGAUCACCCAUGUAUUGCGGUCUGCGUUCAGAUCGCC [salish99_ExNG1_r4_035] (Eterna round: R96, puzzle: Exclusion NG 1)	–	–	–	27.6	16.7	24.1
AGAUGGCGAGGAUAUACAUGAGGAUCACCCAUGUGAGAAGAUAAAGUGAGGAAGAAAAGUAGAAGGCGCUGUCA [Mat - Exclusion 3 - Mod of Salish D23] (puzzle: Exclusion 3)	44.9	68.3	45.1	–	–	–
GUUCGGGCAGGAUAUACAUGAGGAUCACCCAUGUGUGUCCAUACGCGUGAGUCUUCGUGUAGAAGGGUUUGGGC [-30.5, -27.8 kcal, 20% A] (Eterna round: R97, puzzle: Exclusion 3)	–	–	–	27.3	–	21.1
GCAUGCUAUGUCAGGAUAUACCUCUGGAUACAUAGGUAGAAGGGACAUGAGGAUCACCCAUGUCCUCAUCAUGC [Fiskers BMX 4 - 25] (puzzle: Brourd's mod of Exclusion 4)	13.5	–	–	–	–	–
AAUAAGAGAGGAUAUACUAAAAUAUGAAUAAAAUAAAUAAAACAUGAGGAUCACCCAUGUAGAAGGCUCAAUAA [JMF's Not so obvious solution 6] (puzzle: Exclusion 2)	19.2	23.1	24.7	–	–	–
GACUAGGCAGGAUAUACAUGAGGAUCACCCAUGUGUCUGCGAUAGGCACGUGAUUACUGUAGAAGGGCCUUGAC [Exclusion 3 - mod of a parushev design] (puzzle: Exclusion 3)	204	–	–	–	–	–
UACAUGAGGAUCACCCAUGUUUUGUCGUGUAUGGUAUUUAUCUAGGAUAUCAAUUGAUUUAGUUAUGAGAAGGAGAAUAUUAAU [JMF's solution 62] (Eterna round: R96, puzzle: Exclusion NG 3)	–	–	–	27.2	20.6	30.1
AGAGAGUCAGGAUAUGACGAAGAGAACAUGAGGAUCACCCAUGUAGCUUCGUAAUCAUCGUCAGAAGGGACGAACU [JR_Ex5_Sub090] (Eterna round: R97, puzzle: Exclusion 5)	–	–	–	14.7	–	14.8
AGGGUAAAGUUAGGAUAUGCGAAUAAUCCAGACGCAGAAGGAACAGGUCGCAUGUGAGUCACAUGAGGAUCACCCAUGUAACUA [Ceissoar] (Eterna round: R96, puzzle: Exclusion NG 1)	–	–	–	143	29.6	36.1
GAGAGGAGUGUAGGAUAUUUAAGGGAGGAGGAGGGAGAAGGACAUGAGGAUCACCCAUGUAGGAAGAGAGGAGGAGUACAGGAG [Default title] (Eterna round: R96, puzzle: Exclusion NG 1)	–	–	–	46.1	19.3	32.3
GGUCGGCGAGGAUAUACAUGAGGAUCACCCAUGUGAUAGAUUGCACGCGUACGUGUAUGUAGAAGGCGCUGACG [JL-ex3-3.30 salish99 mod] (Eterna round: R96, puzzle: Exclusion 3)	–	–	–	433	24.7	32.8
